This data set concerns the molecule itself. The data set can be described thus: non-reducing SDS-PAGE; MDFs treated with TSZ, lysed in DISC lysis buffer; loading dye without beta-mercaptoethanol, immunoblot for MLKL; intermolecular disulfide bonds stabilise the trimer. (In western blotting, separated proteins are transferred to a membrane and probed.)

B1: mixed lineage kinase domain-like (MLKL) pseudokinase, mouse, wild type, endogenous (natural protein, mouse (endogenous in MDFs), UniProt Q9D2Y4-2 1-464, looked up)
chain: MDKLGQIIKLGQLIYEQCEKMKYCRKQCQRLGNRVHGLLQPLQRLQAQGKKNLPDDITAALGRFDEVLKEANQQIEKFSKKSHIWKFVSVGNDKILFHEVNEKLRDVWEELLLLLQVYHWNTVSDVSQPASWQQEDRQDAEEDGNENMKVILMQLQISVEEINKTLKQCSLKPTQEIPQDLQIKEIPKEHLGPPWTKLKTSKMSTIYRGEYHRSPVTIKVFNNPQAESVGIVRFTFNDEIKTMKKFDSPNILRIFGICIDQTVKPPEFSIVMEYCELGTLRELLDREKDLTMSVRSLLVLRAARGLYRLHHSETLHRNISSSSFLVAGGYQVKLAGFELSKTQNSISRTAKSTKAERSSSTIYVSPERLKNPFCLYDIKAEIYSFGIVLWEIATGKIPFEGCDSKKIRELVAEDKKQEPVGQDCPELLREIINECRAHEPSQRPSVDGILERLSAVEESTDKKV
modifications: after TSZ: phosphorylated at S345; K63-linked ubiquitin chains, Ub acceptor lysines K51, K77, K172 and K219
notes: MLKL, mouse, endogenous in MDFs; Oligomers are seen only in cells treated with TNF/SM-164/z-VAD-FMK (TSZ); also called mMLKL; MLKL^WT; source: endogenous, mouse dermal fibroblasts (MDFs), in lysate or digitonin membrane fraction, after TSZ treatment
For orientation: stoichiometry N means a count of units in the complex or per binding partner. For the protein B1, the “stoichiometry N” value was determined as 3.

The values above are taken from paper PMC8184782 (Nature Communications, 2021).
